Data taken from paper PMC9482650, “Quantitative fragmentomics allow affinity mapping of interactomes” (Nature Communications, 2022).

T1: APBA1_1, Q02410
T1 sequence (Q02410 651-752, limits assumed, looked up): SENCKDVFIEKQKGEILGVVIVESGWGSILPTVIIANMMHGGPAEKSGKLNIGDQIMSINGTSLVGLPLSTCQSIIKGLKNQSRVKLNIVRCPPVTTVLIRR

T2: APBA1_2, Q02410
T2 sequence (Q02410 742-832, limits assumed, looked up): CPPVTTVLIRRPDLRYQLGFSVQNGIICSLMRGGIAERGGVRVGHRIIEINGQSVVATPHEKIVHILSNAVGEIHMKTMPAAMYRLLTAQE

T3: ARHGAP21, Q5T5U3
T3 sequence (Q5T5U3 45-169, limits assumed, looked up): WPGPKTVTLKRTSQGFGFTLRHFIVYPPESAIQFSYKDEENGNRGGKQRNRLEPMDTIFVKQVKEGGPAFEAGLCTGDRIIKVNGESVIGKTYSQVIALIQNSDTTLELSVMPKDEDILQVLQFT

T4: DLG3_3, Q92796
T4 sequence (Q92796 374-475, limits assumed, looked up): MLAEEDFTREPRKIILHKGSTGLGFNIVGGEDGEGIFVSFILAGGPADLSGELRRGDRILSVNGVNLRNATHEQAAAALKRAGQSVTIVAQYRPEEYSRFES

T5: MPDZ_10, O75970
T5 sequence (O75970 1624-1722, limits assumed, looked up): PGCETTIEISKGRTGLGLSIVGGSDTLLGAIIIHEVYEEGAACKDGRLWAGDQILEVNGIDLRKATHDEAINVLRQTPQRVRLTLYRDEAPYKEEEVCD

T6: MPDZ_5, O75970
T6 sequence (O75970 695-796, limits assumed, looked up): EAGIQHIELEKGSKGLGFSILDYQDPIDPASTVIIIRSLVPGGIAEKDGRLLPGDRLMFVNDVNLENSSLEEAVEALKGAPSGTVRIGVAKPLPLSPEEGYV

T7: MPP7, Q5T2T1
T7 sequence (Q5T2T1 134-230, limits assumed, looked up): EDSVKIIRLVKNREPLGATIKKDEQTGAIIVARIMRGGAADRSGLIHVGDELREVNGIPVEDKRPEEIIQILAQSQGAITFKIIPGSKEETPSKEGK

T8: NHERF3_1, Q5T2W1
T8 sequence (Q5T2W1 4-100, limits assumed, looked up): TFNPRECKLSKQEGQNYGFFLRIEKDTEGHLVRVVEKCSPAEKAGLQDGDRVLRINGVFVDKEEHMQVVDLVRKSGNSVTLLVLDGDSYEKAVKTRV

T9: PDZD2_2, O15018
T9 sequence (O15018 329-429, limits assumed, looked up): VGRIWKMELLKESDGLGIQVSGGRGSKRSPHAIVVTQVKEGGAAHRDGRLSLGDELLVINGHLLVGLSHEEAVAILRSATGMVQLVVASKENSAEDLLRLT

T10: TX1BP3, O14907
T10 sequence (O14907 10-122, limits assumed, looked up): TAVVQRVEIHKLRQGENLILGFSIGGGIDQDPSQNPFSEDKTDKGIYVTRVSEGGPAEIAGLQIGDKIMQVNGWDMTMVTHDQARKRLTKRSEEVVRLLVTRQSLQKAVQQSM

B1: TECPR2, O15040 (peptide)
chain: EDLEDEWEVI
B2: SDC2, P34741 (peptide)
chain: QKAPTKEFYA

Target: T1, APBA1_1, Q02410
Assay: holdup assay
Set-up: key: below the threshold = too weak to quantify, mostly under pKd 3.1 to 4
Conditions: plain residues with an end cap or a label only (N-terminal biotin on a linker: ado-ado)

Question: Which pKd does the source give for B1 here?
Answer: below the threshold

Question: B2 was tested. Which pKd did it give?
Answer: below the threshold

Target: T2, APBA1_2, Q02410
Assay: holdup assay
Set-up: key: below the threshold = too weak to quantify, mostly under pKd 3.1 to 4
Conditions: plain residues with an end cap or a label only (N-terminal biotin on a linker: ado-ado)

Question: How did the pKd turn out when B1 was run?
Answer: below the threshold

Question: How did the pKd turn out when B2 was run?
Answer: below the threshold

Target: T3, ARHGAP21, Q5T5U3
Assay: holdup assay
Set-up: key: below the threshold = too weak to quantify, mostly under pKd 3.1 to 4
Conditions: plain residues with an end cap or a label only (N-terminal biotin on a linker: ado-ado)

Question: Which pKd does the source give for B1 here?
Answer: below the threshold

Question: With B2 as the binder, how does the pKd read?
Answer: below the threshold

Target: T4, DLG3_3, Q92796
Assay: holdup assay
Set-up: key: below the threshold = too weak to quantify, mostly under pKd 3.1 to 4
Conditions: plain residues with an end cap or a label only (N-terminal biotin on a linker: ado-ado)

Question: Which pKd does the source give for B1 here?
Answer: below the threshold

Question: Which pKd does the source give for B2 here?
Answer: below the threshold

Target: DLG4_1, P78352
Sequence (P78352 62-152): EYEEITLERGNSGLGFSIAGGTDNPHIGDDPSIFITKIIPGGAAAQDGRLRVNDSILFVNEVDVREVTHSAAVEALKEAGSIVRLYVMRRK
Assay: holdup assay
Set-up: key: below the threshold = too weak to quantify, mostly under pKd 3.1 to 4
Conditions: plain residues with an end cap or a label only (N-terminal biotin on a linker: ado-ado)

Question: How did the pKd turn out when B1 was run?
Answer: below the threshold

Question: With B2 as the binder, how does the pKd read?
Answer: below the threshold

Target: GRID2IP_2, A4D2P6
Sequence (A4D2P6 272-370): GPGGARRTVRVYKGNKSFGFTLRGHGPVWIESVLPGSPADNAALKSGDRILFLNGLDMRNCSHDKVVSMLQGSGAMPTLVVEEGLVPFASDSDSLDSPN
Assay: holdup assay
Set-up: key: below the threshold = too weak to quantify, mostly under pKd 3.1 to 4
Conditions: plain residues with an end cap or a label only (N-terminal biotin on a linker: ado-ado)

Question: B1 was tested. Which pKd did it give?
Answer: below the threshold

Question: How did the pKd turn out when B2 was run?
Answer: below the threshold

Target: GRIP2_3, Q9C0E4
Sequence (Q9C0E4 238-339): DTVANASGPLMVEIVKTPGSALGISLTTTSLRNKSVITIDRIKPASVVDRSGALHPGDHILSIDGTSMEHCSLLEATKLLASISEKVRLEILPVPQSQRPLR
Assay: holdup assay
Set-up: key: below the threshold = too weak to quantify, mostly under pKd 3.1 to 4
Conditions: plain residues with an end cap or a label only (N-terminal biotin on a linker: ado-ado)

Question: Which pKd does the source give for B1 here?
Answer: below the threshold

Question: For B2, which pKd is on record?
Answer: below the threshold

Target: GRIP2_5, Q9C0E4
Sequence (Q9C0E4 544-642): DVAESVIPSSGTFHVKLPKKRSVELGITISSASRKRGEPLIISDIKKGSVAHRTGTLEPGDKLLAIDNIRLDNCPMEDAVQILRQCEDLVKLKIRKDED
Assay: holdup assay
Set-up: key: below the threshold = too weak to quantify, mostly under pKd 3.1 to 4
Conditions: plain residues with an end cap or a label only (N-terminal biotin on a linker: ado-ado)

Question: For B1, which pKd is on record?
Answer: below the threshold

Question: How did the pKd turn out when B2 was run?
Answer: below the threshold

Target: IL16_1, Q14005
Sequence (Q14005 210-306): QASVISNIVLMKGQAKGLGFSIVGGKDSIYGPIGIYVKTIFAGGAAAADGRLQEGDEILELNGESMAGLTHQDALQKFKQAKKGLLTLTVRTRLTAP
Assay: holdup assay
Set-up: key: below the threshold = too weak to quantify, mostly under pKd 3.1 to 4
Conditions: plain residues with an end cap or a label only (N-terminal biotin on a linker: ado-ado)

Question: With B1 as the binder, how does the pKd read?
Answer: below the threshold

Question: How did the pKd turn out when B2 was run?
Answer: below the threshold

Target: Inadl_4, Q8NI35
Sequence (Q8NI35 547-651): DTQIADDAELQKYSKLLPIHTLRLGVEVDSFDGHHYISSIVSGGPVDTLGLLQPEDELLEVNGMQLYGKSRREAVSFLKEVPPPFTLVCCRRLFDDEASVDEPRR
Assay: holdup assay
Set-up: key: below the threshold = too weak to quantify, mostly under pKd 3.1 to 4
Conditions: plain residues with an end cap or a label only (N-terminal biotin on a linker: ado-ado)

Question: Which pKd does the source give for B1 here?
Answer: below the threshold

Question: How did the pKd turn out when B2 was run?
Answer: below the threshold

Target: LDB3, O75112
Sequence (O75112 1-94): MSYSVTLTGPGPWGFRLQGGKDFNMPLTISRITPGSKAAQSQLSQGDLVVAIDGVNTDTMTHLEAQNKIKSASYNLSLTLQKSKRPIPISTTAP
Assay: holdup assay
Set-up: key: below the threshold = too weak to quantify, mostly under pKd 3.1 to 4
Conditions: plain residues with an end cap or a label only (N-terminal biotin on a linker: ado-ado)

Question: Which pKd does the source give for B1 here?
Answer: below the threshold

Question: For B2, which pKd is on record?
Answer: below the threshold

Target: MAGI1_1, Q96QZ7
Sequence (Q96QZ7 1-106): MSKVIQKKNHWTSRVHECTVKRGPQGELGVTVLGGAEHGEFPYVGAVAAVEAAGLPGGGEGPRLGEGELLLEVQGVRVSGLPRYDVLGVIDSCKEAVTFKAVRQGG
Assay: holdup assay
Set-up: key: below the threshold = too weak to quantify, mostly under pKd 3.1 to 4
Conditions: plain residues with an end cap or a label only (N-terminal biotin on a linker: ado-ado)

Question: How did the pKd turn out when B1 was run?
Answer: below the threshold

Question: With B2 as the binder, how does the pKd read?
Answer: below the threshold

Target: MAGI2_3, Q86UL8
Sequence (Q86UL8 600-682): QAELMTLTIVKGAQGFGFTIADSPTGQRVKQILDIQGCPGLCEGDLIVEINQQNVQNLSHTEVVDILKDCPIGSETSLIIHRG
Assay: holdup assay
Set-up: key: below the threshold = too weak to quantify, mostly under pKd 3.1 to 4
Conditions: plain residues with an end cap or a label only (N-terminal biotin on a linker: ado-ado)

Question: For B1, which pKd is on record?
Answer: below the threshold

Question: How did the pKd turn out when B2 was run?
Answer: below the threshold

Target: MAST2, Q6P0Q8
Sequence (Q6P0Q8 1099-1202): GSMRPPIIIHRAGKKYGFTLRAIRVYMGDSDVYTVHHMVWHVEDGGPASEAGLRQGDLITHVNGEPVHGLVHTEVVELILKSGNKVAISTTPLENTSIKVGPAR
Assay: holdup assay
Set-up: key: below the threshold = too weak to quantify, mostly under pKd 3.1 to 4
Conditions: plain residues with an end cap or a label only (N-terminal biotin on a linker: ado-ado)

Question: Which pKd does the source give for B1 here?
Answer: 4.14

Question: For B2, which pKd is on record?
Answer: 3.82

Target: T5, MPDZ_10, O75970
Assay: holdup assay
Set-up: key: below the threshold = too weak to quantify, mostly under pKd 3.1 to 4
Conditions: plain residues with an end cap or a label only (N-terminal biotin on a linker: ado-ado)

Question: For B1, which pKd is on record?
Answer: below the threshold

Question: For B2, which pKd is on record?
Answer: below the threshold

Target: T6, MPDZ_5, O75970
Assay: holdup assay
Set-up: key: below the threshold = too weak to quantify, mostly under pKd 3.1 to 4
Conditions: plain residues with an end cap or a label only (N-terminal biotin on a linker: ado-ado)

Question: Which pKd does the source give for B1 here?
Answer: below the threshold

Question: B2 was tested. Which pKd did it give?
Answer: 3.48

Target: T7, MPP7, Q5T2T1
Assay: holdup assay
Set-up: key: below the threshold = too weak to quantify, mostly under pKd 3.1 to 4
Conditions: plain residues with an end cap or a label only (N-terminal biotin on a linker: ado-ado)

Question: With B1 as the binder, how does the pKd read?
Answer: below the threshold

Question: For B2, which pKd is on record?
Answer: below the threshold

Target: NHERF2_2, Q15599
Sequence (Q15599 142-238): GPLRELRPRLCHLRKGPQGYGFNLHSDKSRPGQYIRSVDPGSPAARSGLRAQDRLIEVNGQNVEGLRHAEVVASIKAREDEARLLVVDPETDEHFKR
Assay: holdup assay
Set-up: key: below the threshold = too weak to quantify, mostly under pKd 3.1 to 4
Conditions: plain residues with an end cap or a label only (N-terminal biotin on a linker: ado-ado)

Question: Which pKd does the source give for B1 here?
Answer: below the threshold

Question: Which pKd does the source give for B2 here?
Answer: below the threshold

Target: T8, NHERF3_1, Q5T2W1
Assay: holdup assay
Set-up: key: below the threshold = too weak to quantify, mostly under pKd 3.1 to 4
Conditions: plain residues with an end cap or a label only (N-terminal biotin on a linker: ado-ado)

Question: How did the pKd turn out when B1 was run?
Answer: below the threshold

Question: B2 was tested. Which pKd did it give?
Answer: 3.86

Target: NHERF4_2, Q86UT5
Sequence (Q86UT5 220-308): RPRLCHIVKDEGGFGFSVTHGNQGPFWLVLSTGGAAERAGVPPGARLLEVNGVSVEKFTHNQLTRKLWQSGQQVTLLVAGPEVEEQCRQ
Assay: holdup assay
Set-up: key: below the threshold = too weak to quantify, mostly under pKd 3.1 to 4
Conditions: plain residues with an end cap or a label only (N-terminal biotin on a linker: ado-ado)

Question: For B1, which pKd is on record?
Answer: below the threshold

Question: With B2 as the binder, how does the pKd read?
Answer: below the threshold

Target: NHERF4_4, Q86UT5
Sequence (Q86UT5 464-550): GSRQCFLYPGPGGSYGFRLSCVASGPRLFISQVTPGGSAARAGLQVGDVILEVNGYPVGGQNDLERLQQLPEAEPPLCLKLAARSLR
Assay: holdup assay
Set-up: key: below the threshold = too weak to quantify, mostly under pKd 3.1 to 4
Conditions: plain residues with an end cap or a label only (N-terminal biotin on a linker: ado-ado)

Question: With B1 as the binder, how does the pKd read?
Answer: below the threshold

Question: With B2 as the binder, how does the pKd read?
Answer: below the threshold

Target: NOS1, P29475
Sequence (P29475 9-101): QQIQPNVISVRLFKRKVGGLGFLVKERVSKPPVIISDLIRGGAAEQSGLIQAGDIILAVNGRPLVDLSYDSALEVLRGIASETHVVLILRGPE
Assay: holdup assay
Set-up: key: below the threshold = too weak to quantify, mostly under pKd 3.1 to 4
Conditions: plain residues with an end cap or a label only (N-terminal biotin on a linker: ado-ado)

Question: Which pKd does the source give for B1 here?
Answer: below the threshold

Question: Which pKd does the source give for B2 here?
Answer: 3.83

Target: PARD3_3, Q8TEW0
Sequence (Q8TEW0 582-685): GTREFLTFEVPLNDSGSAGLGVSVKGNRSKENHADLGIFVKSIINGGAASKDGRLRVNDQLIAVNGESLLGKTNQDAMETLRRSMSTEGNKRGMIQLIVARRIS
Assay: holdup assay
Set-up: key: below the threshold = too weak to quantify, mostly under pKd 3.1 to 4
Conditions: plain residues with an end cap or a label only (N-terminal biotin on a linker: ado-ado)

Question: With B1 as the binder, how does the pKd read?
Answer: 5.6

Question: With B2 as the binder, how does the pKd read?
Answer: below the threshold

Target: T9, PDZD2_2, O15018
Assay: holdup assay
Set-up: key: below the threshold = too weak to quantify, mostly under pKd 3.1 to 4
Conditions: plain residues with an end cap or a label only (N-terminal biotin on a linker: ado-ado)

Question: Which pKd does the source give for B1 here?
Answer: 3.84

Question: For B2, which pKd is on record?
Answer: below the threshold

Target: PICK1, Q9NRD5
Sequence (Q9NRD5 17-115): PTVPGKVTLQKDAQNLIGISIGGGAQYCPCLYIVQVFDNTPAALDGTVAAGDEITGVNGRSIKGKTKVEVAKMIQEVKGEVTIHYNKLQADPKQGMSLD
Assay: holdup assay
Set-up: key: below the threshold = too weak to quantify, mostly under pKd 3.1 to 4
Conditions: plain residues with an end cap or a label only (N-terminal biotin on a linker: ado-ado)

Question: B1 was tested. Which pKd did it give?
Answer: below the threshold

Question: B2 was tested. Which pKd did it give?
Answer: below the threshold

Target: SCRIB_2, Q14160
Sequence (Q14160 857-960): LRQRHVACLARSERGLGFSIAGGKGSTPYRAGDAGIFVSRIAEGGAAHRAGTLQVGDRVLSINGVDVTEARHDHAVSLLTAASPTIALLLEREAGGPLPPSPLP
Assay: holdup assay
Set-up: key: below the threshold = too weak to quantify, mostly under pKd 3.1 to 4
Conditions: plain residues with an end cap or a label only (N-terminal biotin on a linker: ado-ado)

Question: B1 was tested. Which pKd did it give?
Answer: below the threshold

Question: For B2, which pKd is on record?
Answer: below the threshold

Target: T10, TX1BP3, O14907
Assay: holdup assay
Set-up: key: below the threshold = too weak to quantify, mostly under pKd 3.1 to 4
Conditions: plain residues with an end cap or a label only (N-terminal biotin on a linker: ado-ado)

Question: Which pKd does the source give for B1 here?
Answer: below the threshold

Question: B2 was tested. Which pKd did it give?
Answer: below the threshold
